Reference: the DeepSol protein solubility set

test: soluble on expression in E. coli; label from the status in PepcDB or PDB records

Row | Sequence | soluble on expression in E. coli
1 | MAHHHHHHMSTLRHSHEPSPYVQKGEDLSGQKLTPTIKSYRNMEFLNSYSGRMIRILCEFEEPKQRLQQHFIRTTVLFFGSARSMTQAQYDSTVQDIHSKLAAATDDSTKASLQNKLACLKKTQWMCKWVDVVENLARMVAEFSQKEQDMIIRSFRHIPDYFRLTPEDGSESLDDLQKRFHDLVVTTGGGPGFMEAANHGAESVPGAVTMGMGISLPFENGLNPHVTKGLAFEFHYFFTRKFWMMYSCRAIVIAPGGFGTLDEMFELLTLKQTKKIPSLPVVLLGKEFWQTVVNWQALANYGVISQEEIDSLLFTDSAEEAVEHIKDFYHRLASDSPSTE | not soluble
2 | AEDAKLRINGATVTSATNKVTNYIPGVTINLKKETTGAEKLTIQDQSDEKAASMITSFVNTYNALTSTMKTYTGKGTILQASAADLEANRALNNVFQHKKDGNTLFDFGISVDKEGVLKVDETAMKKMVAEDPTAVERFFFGIGGIGDELYQSLNKTFGSTGFISDETTSMTNEINKLNLKLTDITSRNDTLLTNITDQYNKWLEMMQAMQSDAMTLDALIDGMNSSNK | not soluble
3 | MYTYKIGISPEEHDQFVLAQPQAGLLQSSKWGKVKDNWKHERISFYENGVQVAAAACLIRKLPLGFTMIYIPRGPIMDYANFELLDFVIKTLKTFGKSKRALFIKIDPSLVIKQTLEGKESKENDVTLSIIAFLKKLGVEWSGRTKELEDTIQPRIQANIYAKDFDFDSLPKKAKQSIRTATNKGVNVTIGGSELLDDFSALMKKTENRKGIILRGKSYYQKLLGIYAGQSYITMASLDLPEQKKLLIQQLDKALAEQARLTDKSKPSKVAENQKTIARLQKDLTILSEQLATGQTRIPLAATLTLIYGETSENLYAGMDDDYRNYQAPLLTWYETAKEAFKRGCRWHNLGGVENQQDGGLYHFKARLNPTIEEFAGEFNIPVGLVSSLAILTYNLRKKLRSTTNGTN | not soluble
4 | MGSSHHHHHHGGTGENLYFQGGSGSNRKKVAYFHDPDIGSYYYGAGHPMKPQRIRMTHSLIVSYNLYKYMEVYRPHKSDVNELTLFHDYEYIDFLSSISLENYREFTYQLKRFNVGEATDCPVFDGLFQFQQSCAGASIDGASKLNHHCADICVNWSGGLHHAKMSEASGFCYINDIVLGILELLKYHARVMYIDIDVHHGDGVEEAFYVTHRVMTVSFHKFGDYFPGTGDITDVGVNHGKYYSVNVPLNDGMTDDAFVDLFKVVIDKCVQTYRPGAIIIQCGADSLTGDRLGRFNLTIKGHARCVEHVRSYNIPLLVLGGGGYTIRNVSRCWAYETGVVLNKHHEMPDQISLNDYYDYYAPDFQLHLQPSNIPNYNSPEHLSRIKMKIAENLRHIEHAPGVQFSYVPPDFFNSDIDDESDKNQYELKDDSGGGRAPGTRAKEHSTTHHLRRKNYDDDFFDLSDRDQSIVPY | not soluble
5 | MSYSSQGVVEKGKVMPGDVLATIEEFLPGEGVYVDPVKGFIRAAAPGVAYLDMSRRIAYVKPHKKPQTPGPGSEVAALVTGVRGDLVVAEVYGVVRLSPKPAWLYELPSPYSAAIPISQIADEYIKNIEDYYRMGDWILAKIVSRTPPFTLSTVEPRYGVVYAICSRCGAVMEFQSERSMKCPKCGNVEKRKVSIHAKSRHLRIRLVRNLVIYRS | soluble
6 | MAANGAKGRKVMRVLVVDNYDSFTYNLVQYLGELGAEPIVWRNDRFRLEEVEALDPDRILISPGPCTPFEAGLSVPLVQRYAPRYPILGVCLGHQAIGAAFGGKVVPAPVLMHGKVSPIHHDGTGVFRGLDSPFPATRYHSLAVVEVPEALVVNAWAEEAGGRTVMGFRHRDYPTHGVQFHPESYLTEAGKLILKNFLEDPWTR | soluble
7 | MGSDKIHHHHHHMKSRKFPIRFENFSLSVDGKSVLENITLSFVEGMNVLYGPRGSGKSSLLRSIVKLNTEIFNEISRSGSVYLFDQNVEDLDDIYVRKNALYLDTSFIDAMNQYTFDEFLKLALKRKISLENFSEKLDDLGILRMLIRGQKTPLSVFSPAEKISLLLFILEQKKPRVILMDCLLDHLDDENLEKIMDMFLKMKEERTFVISTRILQRFLYIADLLVILNNGRINYTGSPKDFVLRM | not soluble
8 | MTVLSPSLPHAAGIDAALVENPWLGLRRSGRYFQNAETEALFARALGYARAGVCVHLAGPAGLGKTTLALRIAQALGRPVAFMTGNEWLGSRDFIGGEIGQTVTSVVDRYIQSVRRTEQSARIDWKESILGQAMRCGQTFIYDEFTRASPEANAALLSVLEEGVLVSTDGASRHQYIEAHPDFRVLLTSNPHEYQGVKAAPDALIDRMVTLRLEEPSAPTLAGIVALRSGLDPATARRIVDLILSVQRSGEMQAPPSMRTAILVARLAAPLRLAGRLSDAALAEIAADVLRGRGLEADAAAFEAKLAAPTPGETARLEHHHHHH | not soluble
